Results as given in patent publication US20260035456A1 (SHANGHAI JEYOU PHARMACEUTICAL, published 2026).

How the values were obtained:
[1] = biological target: T1, biotin-labeled human ADM (human, not fully specified; biotin label (named human ADM-C-biotin in Example 1.4; position of the biotin not stated for the other lots)); experiment: flow staining of yeast-displayed Fab at graded antigen concentrations
T1 construct: Synthetic peptide; also called human ADM-C-biotin; hADM-Biotin
T1 peptide: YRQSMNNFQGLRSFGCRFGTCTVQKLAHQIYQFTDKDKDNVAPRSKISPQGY
Source text: (§1) For the first round of screening products of JYYDL227, 46 monoclones were picked for sequencing, and finally, a yeast monoclonal colony with a unique sequence was obtained for EC₅₀ identification by flow staining.
(§2) According to the staining results of the clones (as shown in Table 6) in combination with the similarity of the sequences of the clones, the monoclones expressing antibodies Ab2004.Am31 (with amino acid sequences of variable regions set forth in SEQ ID NOs: 31 and 36), Ab2004.Am32 (with amino acid sequences of variable regions set forth in SEQ ID NOs: 31 and 37), Ab2004.Am33 (with amino acid sequences of variable regions set forth in SEQ ID NOs: 32 and 36), Ab2004.Am34 (with amino acid sequences of variable regions set forth in SEQ ID NOs: 33 and 38), Ab2004.Am35 (with amino acid sequences of variable regions set forth in SEQ ID NOs: 31 and 38), Ab2004.Am36 (with amino acid sequences of variable regions set forth in SEQ ID NOs: 31 and 39), Ab2004.Am37 (with amino acid sequences of variable regions set forth in SEQ ID NOs: 34 and 38), Ab2004.Am38 (with amino acid sequences of variable regions set forth in SEQ ID NOs: 34 and 40), Ab2004.Am39 (with amino acid sequences of variable regions set forth in SEQ ID NOs: 33 and 41), and Ab2004.Am40 (with amino acid sequences of variable regions set forth in SEQ ID NOs: 31 and 42) were finally selected. The amino acid sequences of the Chothia-numbered CDRs of the candidate antibodies are shown in Table 7, and the amino acid sequences of the light and heavy chain variable regions of the candidate antibodies are shown in Table 8.

[2] = biological target: T2, biotin-labeled mouse ADM (mouse, not fully specified; biotin label (named mouse ADM-C-biotin in Example 1.4; position of the biotin not stated for the other lots)); experiment: as above
T2 construct: Synthetic peptide; also called mouse ADM-C-biotin; mADM-Biotin
T2 peptide: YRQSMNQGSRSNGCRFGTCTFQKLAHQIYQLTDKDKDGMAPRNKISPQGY
Source text: as §1, §2

B1: Ab2004.Am32 (Fab displayed on yeast) (Fab, V domains shown)
VH: QVQLVQSGAEVKKPGASVKVSCKASGYTFTQYGIAWVRQAPGQGLEWMGWISAYQGNTNYAQKLQGRVTMTRDTSTSTAYMELRSLRSDDTAVYYCAREGRWGGSFNIWGQGTMVTVSS
VL: DIQMTQSPSSLSASVGDRVTITCRAAEGIGSYLAWYQQKPGKAPKLLIYDASNLETGVPSRFSGSGSGTDFTFTISSLQPEDIATYYCQQYDNLPLTFGGGTKVEIK
notes: Yeast monoclonal colony of library JYYDL227 (Fab display)
Work on B1 yielded an EC50 [1] of 0.41 nM and an EC50 [2] of 2.2 nM.

B2: Ab2004.Am01 (Fab displayed on yeast) (Fab, V domains shown)
VH: QVQLVQSGAEVKKPGASVKVSCKASGYTFTSYGISWVRQAPGQGLEWMGWISAYQGNTNYAQKLQGRVTMTRDTSTSTAYMELRSLRSDDTAVYYCAREGRWGGSFNIWGQGTMVTVSS
VL: DIQMTQSPSSLSASVGDRVTITCRASQGISSYLAWYQQKPGKAPKLLIYDASNLETGVPSRFSGSGSGTDFTFTISSLQPEDIATYYCQQYDNLPLTFGGGTKVEIK
B2 gave an EC50 [1] of 4 nM and an EC50 [2] of 88.2 nM.

B3: Ab2004.Am35 (Fab displayed on yeast) (Fab, V domains shown)
VH: QVQLVQSGAEVKKPGASVKVSCKASGYTFTQYGIAWVRQAPGQGLEWMGWISAYQGNTNYAQKLQGRVTMTRDTSTSTAYMELRSLRSDDTAVYYCAREGRWGGSFNIWGQGTMVTVSS
VL: DIQMTQSPSSLSASVGDRVTITCRASQGISSYLAWYQQKPGKAPKLLIYDVSILDAGVPSRFSGSGSGTDFTFTISSLQPEDIATYYCQQYDNLPLTFGGGTKVEIK
notes: as for B1
Work on B3 yielded an EC50 [1] of 1.47 nM and an EC50 [2] of 2.26 nM.

B4: Ab2004.Am31 (Fab displayed on yeast) (Fab, V domains shown)
VH: QVQLVQSGAEVKKPGASVKVSCKASGYTFTQYGIAWVRQAPGQGLEWMGWISAYQGNTNYAQKLQGRVTMTRDTSTSTAYMELRSLRSDDTAVYYCAREGRWGGSFNIWGQGTMVTVSS
VL: DIQMTQSPSSLSASVGDRVTITCRASEGISEYLAWYQQKPGKAPKLLIYDASNLETGVPSRFSGSGSGTDFTFTISSLQPEDIATYYCQQYDNLPLTFGGGTKVEIK
notes: as for B1
B4 gave an EC50 [1] of 0.45 nM and an EC50 [2] of 1.66 nM.

B5: Ab2004.Am37 (Fab displayed on yeast) (Fab, V domains shown)
VH: QVQLVQSGAEVKKPGASVKVSCKASGYTFTSYGISWVRQAPGQGLEWMGWISPYTGKTNYAQKLQGRVTMTRDTSTSTAYMELRSLRSDDTAVYYCAREGRWGGSFNIWGQGTMVTVSS
VL: DIQMTQSPSSLSASVGDRVTITCRASQGISSYLAWYQQKPGKAPKLLIYDVSILDAGVPSRFSGSGSGTDFTFTISSLQPEDIATYYCQQYDNLPLTFGGGTKVEIK
notes: as for B1
B5 was tested, and the EC50 [1] was 0.88 nM and the EC50 [2] was 6.74 nM.

B6: Ab2004.Am40 (Fab displayed on yeast) (Fab, V domains shown)
VH: QVQLVQSGAEVKKPGASVKVSCKASGYTFTQYGIAWVRQAPGQGLEWMGWISAYQGNTNYAQKLQGRVTMTRDTSTSTAYMELRSLRSDDTAVYYCAREGRWGGSFNIWGQGTMVTVSS
VL: DIQMTQSPSSLSASVGDRVTITCRASQGISSYLAWYQQKPGKAPKLLIYDASNLETGVPSRFSGSGSGTDFTFTISSLQPEDIATYYCQQYDDLPLSFGGGTKVEIK
notes: as for B1
Binder B6 has an EC50 [1] of 0.5 nM and an EC50 [2] of 2.5 nM.

B7: Ab2004.Am33 (Fab displayed on yeast) (Fab, V domains shown)
VH: QVQLVQSGAEVKKPGASVKVSCKASGYTFTSYGISWVRQAPGQGLEWMGWISPYSGNTNYAQKLQGRVTMTRDTSTSTAYMELRSLRSDDTAVYYCAREGRWGGSFNIWGQGTMVTVSS
VL: DIQMTQSPSSLSASVGDRVTITCRASEGISEYLAWYQQKPGKAPKLLIYDASNLETGVPSRFSGSGSGTDFTFTISSLQPEDIATYYCQQYDNLPLTFGGGTKVEIK
notes: as for B1
With B7 the EC50 [1] was 0.79 nM and the EC50 [2] was 15 nM.

B8: Ab2004.Am34 (Fab displayed on yeast) (Fab, V domains shown)
VH: QVQLVQSGAEVKKPGASVKVSCKASGYTFTHYGIAWVRQAPGQGLEWMGWISAYQGNTNYAQKLQGRVTMTRDTSTSTAYMELRSLRSDDTAVYYCAREGRWGGSFNIWGQGTMVTVSS
VL: DIQMTQSPSSLSASVGDRVTITCRASQGISSYLAWYQQKPGKAPKLLIYDVSILDAGVPSRFSGSGSGTDFTFTISSLQPEDIATYYCQQYDNLPLTFGGGTKVEIK
notes: as for B1
B8 showed an EC50 [1] of 1.06 nM and an EC50 [2] of 4.43 nM.

B9: Ab2004.Am38 (Fab displayed on yeast) (Fab, V domains shown)
VH: QVQLVQSGAEVKKPGASVKVSCKASGYTFTSYGISWVRQAPGQGLEWMGWISPYTGKTNYAQKLQGRVTMTRDTSTSTAYMELRSLRSDDTAVYYCAREGRWGGSFNIWGQGTMVTVSS
VL: DIQMTQSPSSLSASVGDRVTITCRASQGISSYLAWYQQKPGKAPKLLIYDTSDLDTGVPSRFSGSGSGTDFTFTISSLQPEDIATYYCQQYDNLPLTFGGGTKVEIK
notes: as for B1
For B9, the EC50 [1] was 0.74 nM and the EC50 [2] was 14.3 nM.

B10: Ab2004.Am36 (Fab displayed on yeast) (Fab, V domains shown)
VH: QVQLVQSGAEVKKPGASVKVSCKASGYTFTQYGIAWVRQAPGQGLEWMGWISAYQGNTNYAQKLQGRVTMTRDTSTSTAYMELRSLRSDDTAVYYCAREGRWGGSFNIWGQGTMVTVSS
VL: DIQMTQSPSSLSASVGDRVTITCRASQGISSYLAWYQQKPGKAPKLLIYDASNVDTGVPSRFSGSGSGTDFTFTISSLQPEDIATYYCQQYDNLPLTFGGGTKVEIK
notes: as for B1
For B10, the EC50 [1] was 1.73 nM and the EC50 [2] was 2.67 nM.

B11: Ab2004.Am39 (Fab displayed on yeast) (Fab, V domains shown)
VH: QVQLVQSGAEVKKPGASVKVSCKASGYTFTHYGIAWVRQAPGQGLEWMGWISAYQGNTNYAQKLQGRVTMTRDTSTSTAYMELRSLRSDDTAVYYCAREGRWGGSFNIWGQGTMVTVSS
VL: DIQMTQSPSSLSASVGDRVTITCRASQGISSYLAWYQQKPGKAPKLLIYDASNLETGVPSRFSGSGSGTDFTFTISSLQPEDIATYYCQQYDDLDLTFGGGTKVEIK
notes: as for B1
For B11, the EC50 [1] was 0.86 nM and the EC50 [2] was 4.23 nM.
